These results are taken from patent publication US20240158497A1 (published 2024).

A word on the Kd: it is the free concentration of one partner at which half of the binding sites on the other are occupied at equilibrium, for simple one-to-one binding. High values mean weaker binding, low ones tighter binding. One may read the koff as a measure of how fast the partners let go of each other. Read a high koff as fast dissociation. For orientation: kon means the rate constant with which the complex forms. A lower kon goes with slower complex formation. By t½ is commonly meant how long it takes for the measured level to halve.

B1: bsAb19145D (bispecific antibody, V domains shown)
VH 1: QVQLVESGGGVVQPGRSLRLSCTASGFTFSSYAMYWVRQAPGKGLEWVSVIYYDGSYKYYADSVKGRFTISRDNSKNTLYLQMDSLRAEDTAVYYCASYNWNYWYFDFWGRGTLVTVSS
VH 2: EVQLVESGGGLVQPGRSLRLSCAASGFTLDDFAMHWVRQAPGKGLEWVSGISWNSGNIGYADSVKGRFTISRDNARNSLYLQMNSLRAEDTALYYCTSGYYLYYAMDVWGQGTTVTVSS
VL: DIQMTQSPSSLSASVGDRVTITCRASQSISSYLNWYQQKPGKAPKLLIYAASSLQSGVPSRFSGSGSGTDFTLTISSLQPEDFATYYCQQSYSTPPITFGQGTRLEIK
notes: LEPR x GP130 bispecific with common light chain
B2: bsAb19155D (bispecific antibody, V domains shown)
VH 1: B1 VH 1
VH 2: EVQLVESGGGLVQPGGSLRLSCAASGFTFSTYWMNWVRQAPGKGLEWVANIKEDGSEKYYVDSVKGRFTISRDNAKNSLYLQMNSLRAEDTAVYYCAREGFGVVTYIWGQGTMVTVSS
VL: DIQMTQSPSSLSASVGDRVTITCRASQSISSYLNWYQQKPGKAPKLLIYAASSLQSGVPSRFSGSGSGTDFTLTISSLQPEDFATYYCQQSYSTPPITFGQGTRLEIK
notes: as for B1
B3: bsAb19152D (bispecific antibody, V domains shown)
VH 1: B1 VH 1
VH 2: EVQLVQSGAEVKKPGESLKISCKGSGYSFTSYWIDWVRQMPGKGLEWMGIIYPDDSDTRYSPSFQGQVTMSVDKSISTAYLQWSSLKASDTAIYYCARHERGIVEAGTDYYYYYGMDVWGQGTTVTVSS
VL: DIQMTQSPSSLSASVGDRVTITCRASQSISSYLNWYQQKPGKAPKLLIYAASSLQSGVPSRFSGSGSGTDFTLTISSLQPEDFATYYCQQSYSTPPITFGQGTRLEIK
notes: as for B1
B4: bsAb19153D (bispecific antibody, V domains shown)
VH 1: B1 VH 1
VH 2: QVQLVQSGAEVMKPGASVKVSCRASGYTFSSYDINWVRQAPGQGLEWMGWISTATGNTNYPQKVQGRVTMTTDTSTNTAYMELRSLRSDDTAVYYCTREGNSKGWLDPWGQGTLVTVSS
VL: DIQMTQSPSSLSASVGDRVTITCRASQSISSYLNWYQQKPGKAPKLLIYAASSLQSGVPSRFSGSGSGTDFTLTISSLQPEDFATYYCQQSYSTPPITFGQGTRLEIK
notes: as for B1
B5: bsAb19150D (bispecific antibody, V domains shown)
VH 1: B1 VH 1
VH 2: EVQLVESGGGLVQSGGSLRLSCAASGFTFSRYEMNWVRQAPGKGLEWVAYISNTGTTRDYSDSVKGRFTISRDNAKNSLYLQMSSLRVEDTAVYYCVREKFSGTSDWFDPWGQGTLVTVSS
VL: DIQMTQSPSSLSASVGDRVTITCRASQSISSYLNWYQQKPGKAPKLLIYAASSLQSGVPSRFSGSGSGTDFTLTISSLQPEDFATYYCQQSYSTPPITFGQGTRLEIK
notes: as for B1
B6: bsAb19151D (bispecific antibody, V domains shown)
VH 1: B1 VH 1
VH 2: EVQLVESGGGLVQPGGSLRLSCAASGFTFSSYAMNWVRQAPGKGLEWVSAISGSGDSTYYTDSVKGRFTISRDNSKNTLYLQMNTLRAEDTAVYYCAKEEIVMLVGATPGWFDPWGQGTLVTVSS
VL: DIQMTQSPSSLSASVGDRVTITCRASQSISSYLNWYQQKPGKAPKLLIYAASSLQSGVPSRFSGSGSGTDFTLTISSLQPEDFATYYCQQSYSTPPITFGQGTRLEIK
notes: as for B1
B7: bsAb19146D (bispecific antibody, V domains shown)
VH 1: B1 VH 1
VH 2: QVQLVQSGPEVKKPGSSVKVSCKASGGTIDRNEITWVRQAPGQGLEWMGVIIPILGEAHYERKFQGRLTITMDESTSTAYMELSNLRSEDTAVYYCARERAARGYLDYWGQGTLVTVSS
VL: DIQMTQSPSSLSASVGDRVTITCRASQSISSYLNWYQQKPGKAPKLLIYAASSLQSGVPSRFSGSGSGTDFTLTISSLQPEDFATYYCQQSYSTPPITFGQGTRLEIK
notes: as for B1

One assay concerns the target T1, human GP130 extracellular domain expressed with a C-terminal myc-myc-hexahistidine tag (human, UniProt P40189 23-619).
T1 construct: also called hGP130-MMH; hGP130-mmH
The assay is described as follows: SPR, bsAb captured by anti-hFc, 25C. On the procedure:
(§1) Equilibrium dissociation constants (KD values) for LEPR and GP130 binding to purified anti-LEPR/GP130 bispecific antibodies were determined using a real-time surface plasmon resonance biosensor using a Biacore 4000 instrument. All binding studies were performed in 10 mM HEPES, 150 mM NaCl, 3 mM EDTA, and 0.05% v/v Surfactant Tween-20, pH 7.4 (HBS-ET) running buffer at 25° C. and 37° C. The Biacore sensor surface was first derivatized by amine coupling with a monoclonal mouse anti-human Fc antibody (GE, #BR-1008-39) to capture anti-LEPR/GP130 bispecific antibodies. […] Different concentrations of LEPR or GP130 reagents were first prepared in HBS-ET running buffer (100 nM-3.7 nM; 3-fold serial dilution) and were injected over anti-human Fc captured anti-LEPR/GP130 bispecific antibody surface for 4 minutes at a flow rate of 30 μL/minute, while the dissociation of bispecific antibody bound LEPR or GP130 reagent was monitored for 10 minutes in HBS-ET running buffer. Kinetic association (kₐ) and dissociation (kd) rate constants were determined by fitting the real-time binding sensorgrams to a 1:1 binding model with mass transport limitation using Scrubber 2.0c curve-fitting software. Binding dissociation equilibrium constants (KD) and dissociative half-lives (t ½) were calculated from the kinetic rate constants as: […]
(Surface plasmon resonance follows binding to a sensor surface in real time, without labels.)
Consider B1, for which the “100 nM hGP130-MMH Bound (RU)” value worked out at 19 RU; the affinity, expressed as Kd, was 17.5 nM; the koff came out at 0.000598 s⁻¹; the kon came to 34100 M⁻¹ s⁻¹. In addition, the t½ amounted to 19 min.

Regarding B2, the “100 nM hGP130-MMH Bound (RU)” value was 7 RU.

As for B3, the “100 nM hGP130-MMH Bound (RU)” value was found to be 35 RU; the affinity, expressed as Kd, was 57.4 nM; the koff came out at 0.0113 s⁻¹; the kon was 196000 M⁻¹ s⁻¹. This molecule yielded a t½ of 1 min.

B4: the “100 nM hGP130-MMH Bound (RU)” value amounted to 24 RU, the Kd came out at 1.62 nM, the koff came to 0.000419 s⁻¹ and the kon came out at 258000 M⁻¹ s⁻¹. Further, the t½ came out at 28 min.

With B5, the “100 nM hGP130-MMH Bound (RU)” value was found to be 47 RU, the Kd was 14 nM, the off-rate (koff) turned out to be 0.0048 s⁻¹ and the kon stood at 342000 M⁻¹ s⁻¹. The t½ came to 2.4 min.

On to B6, for which the “100 nM hGP130-MMH Bound (RU)” value worked out at 9 RU, the Kd came out at 10.5 nM, the koff is 0.000221 s⁻¹ and the kon is 21100 M⁻¹ s⁻¹. The same molecule came in with a t½ of 52 min.

For B7, the “100 nM hGP130-MMH Bound (RU)” value came out at 31 RU, binding was characterised by a dissociation constant (Kd) of 0.448 nM, the koff was 0.000273 s⁻¹ and the kon was 609000 M⁻¹ s⁻¹. The molecule further yielded a t½ of 42 min.

Another assay addresses T2, Macaca Fascicularis GP130 extracellular domain expressed with a C-terminal myc-myc-hexahistidine tag (Macaca fascicularis, UniProt P40189 23-619 (human entry)).
T2 construct: also called mfGP130-MMH; mfGP130-mmH
T2 chain: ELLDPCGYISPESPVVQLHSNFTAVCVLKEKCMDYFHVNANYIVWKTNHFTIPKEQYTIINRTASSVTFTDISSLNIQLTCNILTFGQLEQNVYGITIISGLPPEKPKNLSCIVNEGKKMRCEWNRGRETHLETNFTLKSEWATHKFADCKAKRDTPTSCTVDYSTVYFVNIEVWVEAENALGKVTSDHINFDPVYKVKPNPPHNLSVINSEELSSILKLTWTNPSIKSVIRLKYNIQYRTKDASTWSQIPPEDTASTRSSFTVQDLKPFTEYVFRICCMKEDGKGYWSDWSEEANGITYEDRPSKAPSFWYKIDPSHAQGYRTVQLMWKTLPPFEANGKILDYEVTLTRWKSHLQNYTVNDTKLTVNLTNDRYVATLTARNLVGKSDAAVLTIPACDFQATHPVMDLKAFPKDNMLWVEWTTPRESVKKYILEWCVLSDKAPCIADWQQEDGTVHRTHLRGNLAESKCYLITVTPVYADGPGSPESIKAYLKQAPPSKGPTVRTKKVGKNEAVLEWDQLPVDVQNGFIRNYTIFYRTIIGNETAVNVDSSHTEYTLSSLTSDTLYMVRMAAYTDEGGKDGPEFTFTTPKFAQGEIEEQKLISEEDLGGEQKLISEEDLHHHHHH
The assay is described as follows: SPR, bsAb captured by anti-hFc, 25C. As for the experimental part:
as §1
With B1, the “100 nM mfGP130-MMH Bound (RU)” value is 18 RU, the Kd was found to be 17.4 nM, the koff is 0.000576 s⁻¹ and the kon came out at 33100 M⁻¹ s⁻¹. The t½ worked out at 20 min.

B2: the “100 nM mfGP130-MMH Bound (RU)” value was found to be 7 RU, the Kd was 186 nM, the koff amounted to 0.0184 s⁻¹ and the kon was 98500 M⁻¹ s⁻¹. For the same molecule, the t½ was found to be 0.6 min.

As for B3, the “100 nM mfGP130-MMH Bound (RU)” value amounted to 52 RU; the affinity, expressed as Kd, was 18.8 nM; the koff was 0.00553 s⁻¹; the kon came out at 295000 M⁻¹ s⁻¹. The molecule further returned a t½ of 2.1 min.

As for B4, the “100 nM mfGP130-MMH Bound (RU)” value amounted to 23 RU, the Kd amounted to 1.73 nM, the koff was found to be 0.000396 s⁻¹ and the kon was 229000 M⁻¹ s⁻¹. The t½ worked out at 29 min.

Turning to B5, the “100 nM mfGP130-MMH Bound (RU)” value worked out at 44 RU, the Kd worked out at 16.8 nM, the koff came out at 0.00519 s⁻¹ and the kon stood at 308000 M⁻¹ s⁻¹. In addition, the t½ was 2.2 min.

Take B6: the “100 nM mfGP130-MMH Bound (RU)” value was 3 RU and the binding result was “no binding (tested: 100 nM)”.

On to B7, for which the “100 nM mfGP130-MMH Bound (RU)” value stood at 31 RU, the Kd stood at 0.513 nM, the koff is 0.000258 s⁻¹ and the kon is 502000 M⁻¹ s⁻¹. This molecule came in with a t½ of 45 min.

For a further assay, the target named is T1, human GP130 extracellular domain …. The assay is described as follows: SPR, bsAb captured by anti-hFc, 37C. As for the experimental part: as §1
For B1, the “100 nM hGP130-MMH Bound (RU)” value worked out at 30 RU; the affinity, expressed as Kd, was 32 nM; the koff is 0.00222 s⁻¹; the kon worked out at 69200 M⁻¹ s⁻¹. The same molecule yielded a t½ of 5 min.

For the molecule B2, the “100 nM hGP130-MMH Bound (RU)” value turned out to be 4 RU and the binding result was “no binding (tested: 100 nM)”.

Consider B3, for which the “100 nM hGP130-MMH Bound (RU)” value is 28 RU, the Kd came to 89.1 nM, the koff came to 0.0363 s⁻¹ and the kon is 407000 M⁻¹ s⁻¹. This molecule also registered a t½ of 0.3 min.

As for B4, the “100 nM hGP130-MMH Bound (RU)” value is 33 RU, binding was characterised by a dissociation constant (Kd) of 3.95 nM, the koff stood at 0.00126 s⁻¹ and the kon came out at 319000 M⁻¹ s⁻¹. Besides, the t½ was 9 min.

Regarding B5, the “100 nM hGP130-MMH Bound (RU)” value was 52 RU, the Kd amounted to 15.4 nM, the koff is 0.00665 s⁻¹ and the kon is 433000 M⁻¹ s⁻¹. The t½ stood at 1.7 min.

As to B6, the “100 nM hGP130-MMH Bound (RU)” value is 16 RU, the Kd turned out to be 16.6 nM, the koff is 0.000373 s⁻¹ and the kon was 22400 M⁻¹ s⁻¹. The t½ was found to be 31 min.

Turning to B7, the “100 nM hGP130-MMH Bound (RU)” value stood at 53 RU, the Kd was 0.901 nM, the koff came out at 0.000641 s⁻¹ and the kon is 712000 M⁻¹ s⁻¹. This molecule returned a t½ of 18 min.

A further assay has as its target T2, Macaca Fascicularis GP130 extracellular …. Put plainly: SPR, bsAb captured by anti-hFc, 37C. As for the experimental part: as §1
For the molecule B1, the “100 nM mfGP130-MMH Bound (RU)” value stood at 29 RU, the Kd worked out at 37.6 nM, the koff came to 0.00221 s⁻¹ and the kon was 58800 M⁻¹ s⁻¹. This molecule yielded a t½ of 5 min.

In the case of B2, the “100 nM mfGP130-MMH Bound (RU)” value turned out to be 3 RU.

With B3, the “100 nM mfGP130-MMH Bound (RU)” value was 51 RU, binding was characterised by a dissociation constant (Kd) of 51.6 nM, the koff stood at 0.0177 s⁻¹ and the kon is 342000 M⁻¹ s⁻¹. Also, the t½ stood at 0.7 min.

B4: the “100 nM mfGP130-MMH Bound (RU)” value was determined as 32 RU, the Kd worked out at 4.33 nM, the koff is 0.00123 s⁻¹ and the kon is 284000 M⁻¹ s⁻¹. The molecule further showed a t½ of 9 min.

For B5, the “100 nM mfGP130-MMH Bound (RU)” value is 46 RU, the Kd came out at 19.3 nM, the koff stood at 0.00773 s⁻¹ and the kon worked out at 401000 M⁻¹ s⁻¹. For the same molecule, the t½ came out at 1.5 min.

On to B6, for which the “100 nM mfGP130-MMH Bound (RU)” value amounted to 6 RU.

Consider B7, for which the “100 nM mfGP130-MMH Bound (RU)” value was 53 RU, binding was put at a Kd of 0.959 nM, the koff came out at 0.000626 s⁻¹ and the kon worked out at 653000 M⁻¹ s⁻¹. This molecule came in with a t½ of 18 min.
